Source: paper PMC4191393, “Selective microRNA uridylation by Zcchc6 (TUT7) and Zcchc11 (TUT4)”

Molecular target: T1, r.Zcchc11 (TUT4) (Homo sapiens, UniProt Q5TAX3 225-1384)
T1 sequence: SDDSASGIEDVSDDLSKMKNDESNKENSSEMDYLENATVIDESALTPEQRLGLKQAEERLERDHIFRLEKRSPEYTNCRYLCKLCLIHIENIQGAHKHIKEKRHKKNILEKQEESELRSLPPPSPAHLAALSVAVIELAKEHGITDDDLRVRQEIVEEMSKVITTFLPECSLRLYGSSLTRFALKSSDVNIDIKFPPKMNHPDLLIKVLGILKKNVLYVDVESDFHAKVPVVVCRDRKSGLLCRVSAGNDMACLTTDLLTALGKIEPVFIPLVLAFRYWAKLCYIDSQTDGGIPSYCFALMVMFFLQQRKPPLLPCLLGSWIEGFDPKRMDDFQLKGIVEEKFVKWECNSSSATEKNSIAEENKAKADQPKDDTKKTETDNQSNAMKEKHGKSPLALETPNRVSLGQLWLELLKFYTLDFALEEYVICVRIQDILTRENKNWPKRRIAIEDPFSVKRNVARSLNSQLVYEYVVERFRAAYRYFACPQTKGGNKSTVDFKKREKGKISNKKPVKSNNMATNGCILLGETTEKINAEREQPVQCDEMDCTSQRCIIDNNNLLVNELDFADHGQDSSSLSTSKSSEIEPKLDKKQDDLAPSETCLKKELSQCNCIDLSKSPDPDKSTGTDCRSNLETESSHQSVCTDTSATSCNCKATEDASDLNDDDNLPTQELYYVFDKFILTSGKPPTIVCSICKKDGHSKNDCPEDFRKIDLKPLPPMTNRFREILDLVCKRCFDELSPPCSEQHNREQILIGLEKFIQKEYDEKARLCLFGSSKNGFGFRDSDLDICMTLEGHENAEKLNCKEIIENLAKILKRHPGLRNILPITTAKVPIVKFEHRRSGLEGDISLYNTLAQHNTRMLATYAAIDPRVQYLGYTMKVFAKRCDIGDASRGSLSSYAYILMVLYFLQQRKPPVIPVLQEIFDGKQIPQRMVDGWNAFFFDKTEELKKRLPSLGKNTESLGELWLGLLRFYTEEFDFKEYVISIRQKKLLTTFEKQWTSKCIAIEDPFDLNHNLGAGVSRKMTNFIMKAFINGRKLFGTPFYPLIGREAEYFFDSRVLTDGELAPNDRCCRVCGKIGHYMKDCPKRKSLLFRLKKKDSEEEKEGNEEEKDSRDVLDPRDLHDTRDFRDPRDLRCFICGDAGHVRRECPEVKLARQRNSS
Assay: EMSA; 2 mM Mg2+; RNA 2.5 nM; EMSA: 500 mM NaCl, 20 mM HEPES pH 7.5, 2 mM MgCl2, 5% glycerol, 1 mM TCEP; 10 ul, 3-50 ng protein, 2.5 nM RNA; native 12% PAGE in 0.5x TBE; temperature not stated
Settings: protein: recombinant; tags: N-terminal His6-Trx, removed with TEV; label: 5'-32P; single strand

UGAGGUAGUAGUUUGUACAGUU (ssRNA) [let-7g guide]
binding result: binds
